Measurements from the supplement of paper PMC12042874.
± gives the uncertainty stated by the source.

Assay: amyloid nucleation score (Sup35N fusion, yeast selection) (log enrichment); library NNK2; higher = more nucleation; inactive = no reads after selection
Procedure, shortened: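 Peptides of 20 random codons, each fused to Sup35N, were expressed in psi-negative yeast. Cells were induced with 100 μM copper sulfate for 24 hours and grown 7 days at 30°C on medium lacking adenine and uracil, and plasmid inserts before and after selection were Illumina-sequenced. Nucleation scores are DiMSum log enrichments of output over input reads, centred on the mode score of non-aggregating sequences, and sequences under 100 input reads were excluded.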
FEGSLPVPDGEEAWCAQRMS showed an amyloid nucleation score of -0.006 ± 0.45.
Work on AFSMCSDRWIWLSCLNVEFV yielded an amyloid nucleation score of 9.677 ± 0.048.
Substance RCEAAMWMLASYRVCVTLSC has an amyloid nucleation score of -0.525 ± 1.1.
With LMIGSEDAMNYGCSCNPYLF the amyloid nucleation score was -1.04 ± 0.33.
In the case of DDVMMILGNNTSYVLFNMPC, the amyloid nucleation score is reported as “inactive”.
For YGWRSRYVPCPAGRRCVMSQ, the amyloid nucleation score was 0.53 ± 0.2.
In the case of RYTSVYSGRSENG, the amyloid nucleation score is reported as “inactive”.
For FSVLWEMDRLVHG, the amyloid nucleation score was 0.95 ± 0.29.
Work on TVYGHRVGGRSFVL yielded an amyloid nucleation score of 0.295 ± 0.28.
In the case of KSVRGPCSYIFKYSCY, the amyloid nucleation score is reported as 2.59 ± 0.22.
In the case of SVIKQNC, the amyloid nucleation score is reported as 0.547 ± 0.47.
GQYLLSTIIVFGCSMAGFAA gave an amyloid nucleation score of 2.52 ± 0.12.
For NIAVPEKAVYTYSPSETQAL, the amyloid nucleation score was -0.583 ± 0.55.
In the case of WRMREWKWVEYCRHSVKDAL, the amyloid nucleation score is reported as 1.54 ± 0.31.
NESSTSQNKGTRTDKGAESL gave an amyloid nucleation score of 0.376 ± 0.33.
VVHDNW gave an amyloid nucleation score of 0.29 ± 0.22.
With NLGTWD the amyloid nucleation score was -0.156 ± 0.28.
With GMIFFHGNSLGVTDDSHK the amyloid nucleation score was 0.811 ± 0.82.
In the case of ILVRTSCGGM, the amyloid nucleation score is reported as -0.898 ± 1.1.
With VGGQRHWYLYHDSLHFPQLE the amyloid nucleation score was 0.396 ± 0.62.
DIYFGDQNDCLKR gave an amyloid nucleation score of -1.17 ± 0.64.
Substance EVDSVNVSLCVS has an amyloid nucleation score of -0.796 ± 0.64.
With GFWFLGCPLYYLVAIFKWII the amyloid nucleation score was “inactive”.
For KWLND, the amyloid nucleation score was 0.205 ± 0.41.
For YIRIYRVTMRFNCINVAPWG, the amyloid nucleation score was 6.928 ± 0.048.
NRIGLCRGLNQFFLPGMWSR showed an amyloid nucleation score of 0.283 ± 0.26.
HSPYRFKSKCQRINMFCVIT showed an amyloid nucleation score of 5.713 ± 0.047.
Substance FRVTIMVIQNSPTVSPGLAG has an amyloid nucleation score of 4.31 ± 0.08.
CFSLYSCKDSINDMLKRSQN gave an amyloid nucleation score of -1.12 ± 1.1.
With RSGYGWTVLFERLSKHCEFK the amyloid nucleation score was -0.301 ± 0.39.
In the case of TSSQTHSR, the amyloid nucleation score is reported as -0.03 ± 0.63.
RATSVSILVQLGETLFCEYT showed an amyloid nucleation score of 0.56 ± 0.2.
In the case of RVCPFSQYHVFVS, the amyloid nucleation score is reported as -0.155 ± 0.18.
TQYFYIMLQ showed an amyloid nucleation score of 5.16 ± 0.071.
In the case of NIFMLTLGCGCQAFCSVIMT, the amyloid nucleation score is reported as 1.44 ± 0.17.
MIRWSRRTCRKGLTECTCST gave an amyloid nucleation score of 1.52 ± 0.33.
Work on RLPHSVSALSLKILGGARAR yielded an amyloid nucleation score of 0.02 ± 0.56.
In the case of IVFYVEVVLMAECLADVKRV, the amyloid nucleation score is reported as 5.56 ± 0.081.
Work on RIKMGSSGNLCFIWSMHMYD yielded an amyloid nucleation score of 6.496 ± 0.044.
Substance SFVTCCVSCGWRGQIHAEKL has an amyloid nucleation score of 6.78 ± 0.073.
For FKPYF, the amyloid nucleation score was “inactive”.
HTVLPWYTIRYKWEGVGLTD gave an amyloid nucleation score of 0.403 ± 0.45.
In the case of LRSDESRYPAFHRESSVRSR, the amyloid nucleation score is reported as 0.377 ± 0.3.
For LFSYDDMGALRVNMDWFYNF, the amyloid nucleation score was “inactive”.
LHQRLV gave an amyloid nucleation score of 0.195 ± 0.27.
Substance LYKSGA has an amyloid nucleation score of -0.574 ± 0.28.
With LGCYTYLQEVRMGEDTARGG the amyloid nucleation score was 0.386 ± 0.39.
In the case of FILRGDNLC, the amyloid nucleation score is reported as -1.01 ± 1.
In the case of GSSKFPDFSISLMYELFDI, the amyloid nucleation score is reported as -0.91 ± 1.1.
RSGESRWTYYLVEIYFDGSF gave an amyloid nucleation score of -0.913 ± 0.78.
Work on MIFLYCYIRIEKKVS yielded an amyloid nucleation score of -0.927 ± 0.36.
CVNSLALGRVSIVGISSGWW showed an amyloid nucleation score of 0.284 ± 0.51.
With MVVSFGRLGGNLRRNLKVRI the amyloid nucleation score was 0.214 ± 0.65.
CLPCCGAFNKCANRYQVSEM gave an amyloid nucleation score of -0.249 ± 0.39.
With NKVEALLWTKTTLQCSLRSV the amyloid nucleation score was 4.82 ± 0.059.
Work on VFSYYMSRFLGATCMYKAAG yielded an amyloid nucleation score of 5.1 ± 0.072.
LSKGTPSQSMMSSLLSINTL showed an amyloid nucleation score of -0.159 ± 1.
For FSTQGTPSSSLDWLNRLTVW, the amyloid nucleation score was 0.102 ± 0.36.
VKSTYAYPPNVVDPHIGWGH gave an amyloid nucleation score of 0.99 ± 0.24.
Substance VFKRNQ has an amyloid nucleation score of 0.769 ± 0.41.
SRFVLRFSRGLEGRTSSDMR gave an amyloid nucleation score of 0.294 ± 0.42.
In the case of GNRDMGVVNGRYVTAVTS, the amyloid nucleation score is reported as 0.422 ± 0.26.
In the case of YGLWVYMNWLVSLRSLLTRI, the amyloid nucleation score is reported as “inactive”.
In the case of FGGIFCFSLYR, the amyloid nucleation score is reported as 3.52 ± 0.071.
Work on RRSWDTYMGERGHQLPNPCG yielded an amyloid nucleation score of 0.93 ± 0.36.
With RSPDKDSMQTTLLIRRVTSW the amyloid nucleation score was 1.14 ± 0.48.
Work on LSRQGRLESVKDGRSMWVSG yielded an amyloid nucleation score of -0.283 ± 1.1.
For QMIWKIVCING, the amyloid nucleation score was 4.55 ± 0.097.
For CDKFFLDF, the amyloid nucleation score was -1.9 ± 0.48.
In the case of CMNTISVLSECASTRQTC, the amyloid nucleation score is reported as -0.068 ± 0.31.
In the case of TCVAACTSRRGGISRLLPGN, the amyloid nucleation score is reported as -0.295 ± 0.38.
YCGKTIQCSRRAPTAEDLGM showed an amyloid nucleation score of 2.76 ± 0.12.
In the case of LKLASSGVHCLLFSYCRMAE, the amyloid nucleation score is reported as 0.69 ± 0.62.
For FEIGGHIDCETGVCCGVAVM, the amyloid nucleation score was 4.56 ± 0.052.
Substance RVMMLEGQASNMAYEEL has an amyloid nucleation score of 0.274 ± 1.1.
In the case of MEQELMFREWLW, the amyloid nucleation score is reported as -0.284 ± 0.48.
In the case of SLSRRQLTIPPVTTRVIQSH, the amyloid nucleation score is reported as 0.637 ± 0.25.
FSSSWKGRFVNNSRVVGKSR showed an amyloid nucleation score of -0.367 ± 0.43.
In the case of GVVARSIVAGNLALIIRRRM, the amyloid nucleation score is reported as 0.253 ± 0.42.
For GMPNFSVFVWAF, the amyloid nucleation score was 2.59 ± 0.082.
With LDVKERTCL the amyloid nucleation score was 0.261 ± 0.54.
With DRHIVLSHSSGNLSRLLLAL the amyloid nucleation score was 5.753 ± 0.055.
With FFDSLGAGRYNRIRRWLSVV the amyloid nucleation score was -1.33 ± 0.44.
ETRVITGDVSDRF gave an amyloid nucleation score of 2.55 ± 0.091.
Work on IVMSCSMNPIEAYEVLCEFF yielded an amyloid nucleation score of 0.382 ± 0.8.
Substance DSFIIASRL has an amyloid nucleation score of 1.69 ± 0.1.
